Laboratory results as given in US20180044401A1.

How the values were obtained:
[1] = biological target: IgG-Fab prepared from anti-TNFα monoclonal antibody (Remicade); assay: SPR Biacore, Fab immobilized at about 10000 RU, response 1 minute after addition
[2] = biological target: IgG-Fc of anti-TNFα monoclonal antibody (Remicade); assay: SPR Biacore, Fc immobilized at about 10000 RU, response 1 minute after addition

Work on “peptide having the amino acid sequence of β1 domain of Protein G (SEQ ID NO: 32) (from UniProt P06654 228-282)” yielded an inclination of approximate curve (binding response against peptide concentration) [1] of 0.1 and an inclination of approximate curve (binding response against peptide concentration) [2] of 0.9.
